Source: PMC7065948

How the values were obtained:
Test in all cases: peptide or protein array
[1] = target: TTPESANL (TL8) (SIVmac251 strains)
[2] = target: Tat SL8 epitope (Tat 28-35) (SIVmac239)
[3] = target: PTPESANL (PL8) (SIVsm (isolated from sooty mangabeys) strains)

“rhesus MHC class I Mamu-A1*001 complex (heavy chain with human β2 microglobulin) (from UniProt P61769 21-119)” was tested, and the binding score [1] was 8.72, the binding score [2] was 8.33 and the fluorescence intensity above the median (sd above the median) [2] was 7.15. For the same substance, the binding score [3] was 6.28.
